This is an account of results in patent US20180355050A1 (Ablynx, published 2018).

In experiment [1] the target is T1, human CD40L expressed on CHO cells (human, UniProt P29965 1-261).
T1 sequence: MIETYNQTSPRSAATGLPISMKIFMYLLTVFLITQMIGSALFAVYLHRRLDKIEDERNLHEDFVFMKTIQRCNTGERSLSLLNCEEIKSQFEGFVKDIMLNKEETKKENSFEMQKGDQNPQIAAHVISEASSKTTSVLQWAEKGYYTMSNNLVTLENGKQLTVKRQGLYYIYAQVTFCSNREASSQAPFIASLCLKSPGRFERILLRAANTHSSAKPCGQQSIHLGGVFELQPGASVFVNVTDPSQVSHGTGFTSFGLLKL
Put plainly: cell-based or functional assay.

In experiment [2] the target is T1, human CD40L expressed on CHO cells. Put plainly: cell-based or functional assay. This is another data set of the same source.
Experiment [3] addresses T2, rat CD40L on transiently transfected HEK cells (rat, UniProt Q9Z2V2 1-260).
T2 construct: whole, on cells
T2 sequence (looked up): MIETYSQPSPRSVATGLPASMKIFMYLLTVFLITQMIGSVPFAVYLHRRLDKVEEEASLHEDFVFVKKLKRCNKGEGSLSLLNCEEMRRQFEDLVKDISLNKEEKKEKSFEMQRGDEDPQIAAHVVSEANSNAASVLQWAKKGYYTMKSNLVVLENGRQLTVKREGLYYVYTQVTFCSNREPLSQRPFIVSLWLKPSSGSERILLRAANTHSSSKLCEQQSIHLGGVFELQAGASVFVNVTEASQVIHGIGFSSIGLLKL
Kind of experiment: FACS on HEK cells transiently transfected with rat CD40L. The procedure: Cross-reactivity to rat CD40L (UniProt accession numbers: Q9Z2V2 and Q9R254 (secondary)) was tested in FACS. Purified Nanobodies were analyzed on FACS for binding to rat CD40L. 2×10⁵ cells (transiently transfected rat CD40L HEK cells) were incubated with the purified Nanobodies in FACS buffer for 30 minutes at 4° C. Cells were washed 3×, re-suspended and incubated for 30 minutes at 4° C. Cells were washed again 3× and dead cells were stained with TOPRO3 (Molecular probes, T3605). Samples were analyzed on a FACSarray™ (BD Biosciences).

Experiment [4] has as its target T3, recombinant human CD40L (human, UniProt P29965 108-261, limits assumed).
T3 construct: Bought soluble recombinant protein (R&D, HEK, 6420-CL/CF); also called hCD40L; human CD40L (HEK, R&D)
T3 sequence: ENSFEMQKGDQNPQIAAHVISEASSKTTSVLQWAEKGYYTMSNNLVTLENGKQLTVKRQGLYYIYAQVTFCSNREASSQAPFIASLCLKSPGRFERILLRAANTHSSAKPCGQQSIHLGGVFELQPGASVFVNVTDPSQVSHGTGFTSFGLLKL
Kind of experiment: FACS ligand competition, biotinylated human CD40L on cyno CD40 HEK cells. The procedure: Cross-reactivity to cynomolgus CD40L (UniProt accession number: G7PG38) and rhesus CD40L (UniProt accession number: G7N4M5) was tested in a ligand competition assay. […] 2×10⁵ cells (transiently transfected HEK cells) were incubated with dilution series of the purified Nanobodies in FACS buffer for 30 minutes at 4° C. Cells were then washed 3× and finally resuspended in FACS buffer containing Streptavidin-PE (BD Pharmingen, #554061). This mixture was incubated for 30 minutes at 4° C. Cells were further handled as set out above.

For experiment [5], the target named is T3, recombinant human CD40L. Kind of experiment: FACS ligand competition, biotinylated human CD40L on human CD40 HEK cells.
For experiment [6], the target named is T3, recombinant human CD40L. Kind of experiment: FACS ligand competition, biotinylated human CD40L on rhesus CD40 HEK cells.
The next experiment deals with human TNFα (human, UniProt P01375 77-233). Put plainly: competition ELISA on coated human CD40L, fixed Nanobody, dilution series of competitor. From the text: (§1) The Basic Local Alignment Search Tool (BLAST) was used to identify the closest related protein in the human protein database. […] A fixed concentration of Nanobody was used together with a dilution series of competitor (TNFα, HVEM-L (TNF14) and hRANKL (TN F11); CD40L was used as positive control), starting at a 100-fold excess. The Nano bodies were detected with anti-FLAG-HRP (Sigma (A8592)).

The next experiment deals with HVEM-L (TNF14) (human, UniProt O43557 74-240, limits assumed). The experiment is described as above.
Excerpt: as §1

Another experiment has as its target T4, hRANKL (TNF11) (human, UniProt O14788 140-317, limits assumed).
T4 sequence (looked up): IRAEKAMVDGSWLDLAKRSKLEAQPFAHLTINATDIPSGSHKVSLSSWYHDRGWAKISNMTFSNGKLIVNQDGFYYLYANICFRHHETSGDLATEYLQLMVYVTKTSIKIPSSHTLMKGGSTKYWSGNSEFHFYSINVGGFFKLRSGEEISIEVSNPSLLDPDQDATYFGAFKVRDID
The description is as above.
Excerpt: as §1

The next experiment concerns the target T5, recombinant mouse CD40L (mouse, UniProt P27548 112-260, limits assumed).
T5 construct: also called mouse CD40L (R&D NSO)
T5 sequence (looked up): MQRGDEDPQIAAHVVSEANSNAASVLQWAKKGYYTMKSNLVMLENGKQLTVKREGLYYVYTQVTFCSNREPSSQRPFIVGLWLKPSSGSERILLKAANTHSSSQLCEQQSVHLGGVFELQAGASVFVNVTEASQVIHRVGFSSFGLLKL
Kind of experiment: SPR (ProteOn), immobilised recombinant mouse CD40L 3000-4000 RU; member of the lead panel. How it is done:
To assess binding to mouse CD40L (UniProt accession number: P27548), ProteOn GLC Sensor Chips were coated with 3000-4000 RU of recombinant mouse CD40L (R&D NSO) in 10 mM acetate buffer pH5.5. Purified monovalent anti-CD40L Nanobodies in ProteOn running buffer: PBS/Tween (phosphate buffered saline, pH 7.4 with 0.005% Tween 20) were flown over the sensor chips at 100 nM. Processed curves were used for off-rate analysis based on the Langmuir dissociation model.

The target in experiment [7] is T3, recombinant human CD40L. Kind of experiment: SPR off-rate (ProteOn, 37 °C), immobilised recombinant human CD40L. The procedure: All off-rates were determined on a ProteOn XPR36 instrument (Bio-Rad Laboratories, Inc.). […] 10-fold diluted periplasmic extracts of anti-CD40L Nanobodies expressing E. coli clones in running buffer ProteOn PBS/Tween (phosphate buffered saline, pH7.4 with 0.005% Tween 20) were flown over the sensor chips. Purified monovalent anti-CD40L Nanobodies were flown over the sensor chips at 100 nM. […] Data obtained was double referenced by Interspot subtraction as well as subtraction of a blank buffer injection. Processed curves were used for off-rate analysis based on the Langmuir dissociation model.
Affinity maturation was performed by screening error prone libraries generated from each parental Nanobody clone. In this approach, amino acid substitutions result from random introduction of mutations in the Nanobody encoding DNA via an error prone PCR. As a consequence, amino acid substitutions are found both in the CDRs and in the Framework Regions (FRs). 5 rounds of phage display selections were performed in solution using decreasing concentrations of recombinant CD40L (from 50 nM to 0.05 pM). Following phage display, individual Nanobodies were sequenced and off-rates were determined by SPR analysis (cf. Example 6.1.3).

human TNFα, sequence (P01375 77-233 limits assumed): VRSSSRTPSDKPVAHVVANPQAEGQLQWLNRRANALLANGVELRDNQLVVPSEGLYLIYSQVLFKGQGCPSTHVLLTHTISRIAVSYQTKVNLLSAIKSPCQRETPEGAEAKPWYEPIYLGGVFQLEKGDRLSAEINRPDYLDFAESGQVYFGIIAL
HVEM-L (TNF14), sequence (O43557 74-240 limits assumed): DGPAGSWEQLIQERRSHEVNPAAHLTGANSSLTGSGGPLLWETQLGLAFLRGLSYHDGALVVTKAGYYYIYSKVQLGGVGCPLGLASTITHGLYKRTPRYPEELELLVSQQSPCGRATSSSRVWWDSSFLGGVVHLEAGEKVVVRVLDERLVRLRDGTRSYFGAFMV

B1: C0100046B03 (VHH)
VHH: EVQLVESGGGLVQAGGSLRLSCAASGRTPLNYHMAWFRQAPGKEREFVAAISSLLGSTDYSDSLKDRFTISRDNAKATLYLRMNNLKPEDTAVYYCAARETTHYSTSDRVNEMRHYDYWGQGTLVTVSS
notes: Monovalent Nanobody; tag of the monovalent form not spelled out; also called C01000046B03
B1: in experiment [1], the “IC50 (M), B-cell proliferation assay, +HSA” value is 2.38e-09 M. In experiment [2], the “Average IC50 (M), B-cell proliferation assay” value was 2.18e-09 M. Moreover, the binding result is on record as “no binding” in experiment [3]; “no binding (tested: competitor from a 100-fold excess)” with human TNFα; “no binding (tested: competitor from a 100-fold excess)” with HVEM-L (TNF14); “no binding (tested: competitor from a 100-fold excess)” in the experiment with hRANKL (TNF11); “no binding (tested: 100 nM)” with recombinant mouse CD40L. The “% block (maximum observed effect)” value in the experiment with recombinant human CD40L [4] amounted to 97%; in the experiment with recombinant human CD40L [5], 96%; with recombinant human CD40L [6], 100%. Also, the IC50 in the experiment with recombinant human CD40L [4] was found to be 22.7 nM; with recombinant human CD40L [5], 15.3 nM; in the experiment with recombinant human CD40L [6] it was 28.2 nM.

B2: C0100046B03 H100kS (VHH, name in Kabat numbering)
VHH: EVQLVESGGGLVQAGGSLRLSCAASGRTPLNYHMAWFRQAPGKEREFVAAISSLLGSTDYSDSLKDRFTISRDNAKATLYLRMNNLKPEDTAVYYCAARETTHYSTSDRVNEMRSYDYWGQGTLVTVSS
Take B2: in the experiment with recombinant human CD40L [7], the “fold improved off-rate over parental C0100046B03” value was about 2 fold.

B3: C0100046B03 H100kN (VHH, name in Kabat numbering)
VHH: EVQLVESGGGLVQAGGSLRLSCAASGRTPLNYHMAWFRQAPGKEREFVAAISSLLGSTDYSDSLKDRFTISRDNAKATLYLRMNNLKPEDTAVYYCAARETTHYSTSDRVNEMRNYDYWGQGTLVTVSS
notes: single mutation
On to B3, for which, in the experiment with recombinant human CD40L [7], the “fold improved off-rate over parental C0100046B03” value turned out to be 2.6 fold.

B4: C0100046B03 H100kA (VHH, name in Kabat numbering)
VHH: EVQLVESGGGLVQAGGSLRLSCAASGRTPLNYHMAWFRQAPGKEREFVAAISSLLGSTDYSDSLKDRFTISRDNAKATLYLRMNNLKPEDTAVYYCAARETTHYSTSDRVNEMRAYDYWGQGTLVTVSS
For the molecule B4, in the experiment with recombinant human CD40L [7], the “fold improved off-rate over parental C0100046B03” value is about 2 fold.

B5: C0100046B03 Y100I (VHH, name in Kabat numbering)
VHH: EVQLVESGGGLVQAGGSLRLSCAASGRTPLNYHMAWFRQAPGKEREFVAAISSLLGSTDYSDSLKDRFTISRDNAKATLYLRMNNLKPEDTAVYYCAARETTHISTSDRVNEMRHYDYWGQGTLVTVSS
Take B5: in the experiment with recombinant human CD40L [7], the “fold improved off-rate over parental C0100046B03” value amounted to 1.5 fold.

B6: C0100028B02 D101G (VHH, name in Kabat numbering)
VHH: EVQLVESGGGLVQPGGSLRLSCAASGFTLEYYAIGWFRQAPGKEREGVSCISSEGSTSYTDSVKGRFTISRDNAKNTVYLQMNSLKPEDTAVYYCATDPDRGFLGSSCDTQSHQYGYWGQGTLVTVSS
On to B6, for which the “fold improved off-rate over parental C0100028B02” value with recombinant human CD40L [7] worked out at 1.3 fold.

B7: C0100028B02 L100aF (VHH, name in Kabat numbering)
VHH: EVQLVESGGGLVQPGGSLRLSCAASGFTLEYYAIGWFRQAPGKEREGVSCISSEGSTSYTDSVKGRFTISRDNAKNTVYLQMNSLKPEDTAVYYCATDPDRGFFGSSCDTQSHQYDYWGQGTLVTVSS
As for B7, the “fold improved off-rate over parental C0100028B02” value with recombinant human CD40L [7] was 1.3 fold.

B8: C0100028B02 Y102F (VHH, name in Kabat numbering)
VHH: EVQLVESGGGLVQPGGSLRLSCAASGFTLEYYAIGWFRQAPGKEREGVSCISSEGSTSYTDSVKGRFTISRDNAKNTVYLQMNSLKPEDTAVYYCATDPDRGFLGSSCDTQSHQYDFWGQGTLVTVSS
With B8, the “fold improved off-rate over parental C0100028B02” value with recombinant human CD40L [7] was 1.8 fold.

B9: C0100044B07 (VHH)
VHH: EVQLVESGGGLVQPGGRLRLSCAASGFTLDYYALAWFRQAPGKEREGVSCISSSEGSTDYADYADSVKGRFTISRDTAKNTVYLQMNNLKPEDTAVYYCATDETTFFSGSCTLSAATFGSWGQGTLVTVSS
notes: Monovalent Nanobody; tag of the monovalent form not spelled out; also called C01000044B07
As for B9, the “IC50 (M), B-cell proliferation assay, +HSA” value in experiment [1] amounted to 1.14e-09 M. The “Average IC50 (M), B-cell proliferation assay” value in experiment [2] turned out to be 9.71e-10 M. Besides, the binding result in experiment [3] was “no binding”; with human TNFα, “no binding (tested: competitor from a 100-fold excess)”; with HVEM-L (TNF14), “no binding (tested: competitor from a 100-fold excess)”; in the experiment with hRANKL (TNF11) it was “no binding (tested: competitor from a 100-fold excess)”; in the experiment with recombinant mouse CD40L, “no binding (tested: 100 nM)”. Further, the figures for the “% block (maximum observed effect)” value with recombinant human CD40L [4], with recombinant human CD40L [5] and in the experiment with recombinant human CD40L [6] were 79%, 82% and 83%, respectively. The figures for the IC50 in the experiment with recombinant human CD40L [4], in the experiment with recombinant human CD40L [5] and in the experiment with recombinant human CD40L [6] were 5.28 nM, 5.89 nM and 5.41 nM, respectively.
